± gives the uncertainty stated by the source.
assay: amyloid nucleation score (Sup35N fusion, yeast selection) (log enrichment); library NNK3; higher = more nucleation; inactive = no reads after selection
Summary of the method: (§1)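 Nucleation score is defined as the DiMSum log enrichment of output over input reads, with centring on the mode score of non-aggregating sequences. A minimum of 100 input reads was required for each sequence. Reads came from Illumina sequencing of plasmid inserts from psi-negative yeast expressing Sup35N fused to peptides of 20 random codons, induced with 100 μM copper sulfate for 24 hours and grown 7 days at 30°C on medium lacking adenine and uracil.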

Row | Substance | amyloid nucleation score
1 | IWNRLESFHCHILMVTFHVN | inactive
2 | YVLQTFEGSCVLKRLHIRFM | inactive
3 | TFFWTRCDIVGREWVSNTVN | inactive
4 | FKFALPHSNIGFTISSRFGC | 0.478 ± 0.16
5 | AWTIRGQA | inactive
6 | WADIIKMGDVHVVDYYRKER | inactive
7 | DMVLLWQEFDCGKVACLSGG | inactive
8 | YSFWIVFMRY | inactive
9 | FFSVGIKLDVFVWFWGEGHL | inactive
10 | LLVVY | inactive
11 | PTLYRQNGLLWLVDGEKLIR | inactive
12 | GMSSLIGIDMNLSEKFGYPY | inactive
13 | SSKLFL | inactive
14 | HCGWMAFFISLAPQFVYVLI | inactive
15 | NSFDFYAAGPY | inactive
16 | CIKTCSCLSLPGLRFSPAIS | inactive
17 | KSGPYAVRLSEISWCDVRAG | 0.153 ± 0.88
18 | TYKVFL | inactive
19 | TWATVTMVWCLNVNSVDTGL | 2.26 ± 0.094
20 | NAQGVSKWEDTRSNLNRLVV | inactive
21 | ARIDCGSVELKECDLRPDYG | inactive
22 | GASLYWIP | 0.234 ± 0.88
23 | MCFGKYLSL | inactive
24 | SSDNIVSGWWALSNKSATFV | inactive
25 | RFWRCWAMINR | inactive

Row | Substance | amyloid nucleation score
26 | TLYVFWCEQFKRAYWLYVSK | inactive
27 | NECYYLGRNWPYYGKSDMLL | 0.379 ± 0.27
28 | GWYLYIVTG | inactive
29 | YSYNQIWFLLV | inactive
30 | GLDRI | inactive
31 | HLGYTVYSRTMRSSFVFRVL | inactive
32 | VFNYVIGPGDKFAD | inactive
33 | VCCSYY | 1.32 ± 0.11
34 | DSNWRNMRGLHFY | inactive
35 | TLIHGGFTYLDQWKDETCPQ | inactive
36 | SHCVSTT | inactive
37 | SSSVRMRCSCISLASNKCAY | 1.26 ± 0.12
38 | FCCHYSKLFRR | 0.641 ± 0.41
39 | DSFRHEGRVWLWYSSTTKRF | inactive
40 | GANSGFRGIDGLLPALDKQE | inactive
41 | IYRQDCGFSPKNRKMVSGAA | inactive
42 | AYMYCVMTGSWVVKIRPGTR | inactive
43 | CFRLPCVQESVPDKVLLTGS | inactive
44 | SVDFVIPGSVKSVRFVVELV | inactive
45 | TLPMYTRCTTFAHLSSS | inactive
46 | WVDYLYNSLESIRMCWANVY | inactive
47 | VISIPHGSAIRTCIVITMSL | inactive
48 | ATCWDEYDPRDPLA | inactive
49 | RRYVSSDFFLSAWWTVS | inactive
50 | LKNGLYYHHYFTFLMAYIHQ | inactive

Row | Substance | amyloid nucleation score
51 | CVVNLHSRIEARLLQIYRAV | inactive
52 | VDNNHYQRKSKGFGVAGLIR | inactive
53 | HVSQTWLGRGADSGHWPRQG | 0.325 ± 0.46
54 | LCRYRNSYICSGNIIWMCSL | inactive
55 | EVYDLESGVSITYMCMCVVL | inactive
56 | WYERGG | inactive
57 | MMSTTKSRDNSIKDQLSGSS | inactive
58 | FFNIDVHARVSI | inactive
59 | DDCTTVF | inactive
60 | CLCSTRVRGSFPPDSTVHNF | inactive
61 | GEDVGPCMTESCRYAYLRYT | inactive
62 | PKIRSF | inactive
63 | ERFRSLSGTVEEG | inactive
64 | IWRLCNVPICPSLRGAGHYS | inactive
65 | LCRLLVSTWNSASSFFCRKL | inactive
66 | PVVTVGYLDRMFISFLFSRI | inactive
67 | HCFFDFAYLTRCSSLRSKRC | inactive
68 | IVLNKSILYADTCPLFPTMR | 0.655 ± 0.11
69 | VIFDLVVGCGAVL | inactive
70 | VFEVEPNLGIGYSAKACNVG | inactive
71 | LYNGGI | inactive
72 | LLAWFHNCRLRLI | inactive
73 | SEIIHLGFYYDP | inactive
74 | MLFPPLLGNWLDSGTTQVRR | inactive
75 | VVGNVTGY | inactive

Row | Substance | amyloid nucleation score
76 | LFLVYGGYIFAQRKFAFNSS | inactive
77 | CIFFRVGSFLNYFYASAWHS | inactive
78 | CDVHTGRCDSCYTGNSTKFG | inactive
79 | DKWSWSVCNIRLSKSCNPVT | inactive
80 | LFSQAHGYRDVLGGFRVFWV | inactive
81 | PSSLVIINNYSYC | 3.09 ± 0.073
82 | KYQLPRDNFS | inactive
83 | FYKVYSVRLEHFCKCGIECN | inactive
84 | LKVKLANR | inactive
85 | WVPLDHVGGA | inactive
86 | SRVNFM | inactive
87 | TDSCKGVWIMVGFALFLMWS | inactive
88 | YVFFIVMASSCWHVHSYNYF | -0.437 ± 0.98
89 | YCSYQNR | inactive
90 | LRGYLHWLCSECSVLVSAVA | inactive
91 | LELVYGKIYSDPSTFRGHLV | inactive
92 | FERDVFDQYEVVQWGARGDG | inactive
93 | LLWSCCRGRMYDNMFHGKVK | inactive
94 | GLMLYTSMVGSYDDWPD | inactive
95 | SNIVFVPRSLQRREDGRRMD | inactive
96 | LFSNTRVSSGYRSRLLSRCL | inactive
97 | DDLIGSIFKFLVLSRGKT | inactive
98 | ILLALN | 0.03 ± 0.88
99 | SFSIDLMTSLSWHLLSCRTF | inactive
100 | FLVNEEPVQLHGAPVRYFKF | -0.504 ± 1.1

Row | Substance | amyloid nucleation score
101 | TLCSSGGMFHRSMDSITMS | inactive
102 | ILFNENITKMSLFNCDKFIC | 1.1 ± 0.15
103 | LYFRLPNASAVDIIEIGFPV | 0.039 ± 0.55
104 | GMRSLDMRWAGVMYVHRRRL | inactive
105 | DCLSVEFVLNTRVAYWCTCA | -0.092 ± 0.52
106 | TFVHAYTGWMEFVV | inactive
107 | RIPVSWFNWCTWVYVL | inactive
108 | STYLGDVSLSFVRVWSVNGS | 1.29 ± 0.078
109 | TIHSRMGIVLYFFAIDCVR | inactive
110 | PRGMPIAIFSDWCRLRWGVF | inactive
111 | TQYMWAYPNND | 1.18 ± 0.16
112 | GQFANPVK | inactive
113 | GWTLQWIVWI | 0.081 ± 0.81
114 | PRSMNLHLTSSVTSCLKSVW | -0.707 ± 0.9
115 | WLLDSRDGMRRKRAPRRVFA | inactive
116 | AIEQSLDWF | inactive
117 | TCKVVCRFFHIRACMLGVIL | inactive
118 | YWASARTRSGYFDVNKFSGG | inactive
119 | FYYDRVTLRGNTNLGDLMHG | 1.69 ± 0.076
120 | ALNDLLAYSLSSKSFSYNWI | inactive
121 | SSGKFIVLGRNAWTLAWTLT | inactive

assay: amyloid nucleation score (Sup35N fusion, yeast selection) (log enrichment); library NNK2; higher = more nucleation; inactive = no reads after selection
Summary of the method: as §1

Row | Substance | amyloid nucleation score
122 | NRKSSHYSKNCRTLLHTS | -0.097 ± 1.1
123 | FPGLDGNQMFRLC | 0.42 ± 0.66
124 | TDAGNKGNTTCNRRSACLFY | 0.669 ± 0.74
125 | WVYLRVFAHKKRAALSWAYS | -0.077 ± 0.34
126 | WLLKFSVGLNFFSEFNVLRC | -1.43 ± 0.75
127 | LWMCKTFYGAGLSPVVK | -0.038 ± 1
128 | LVVVRMGGIGLESFVAHGEV | 0.524 ± 0.35
129 | PNRYYQLGTYFLNVQVRQFG | 4.18 ± 0.045
130 | LCSLDSMPHSYITCSAKRLI | -0.443 ± 0.3
131 | YNMMSKFNIFGYYACKSSWK | 1.27 ± 0.14
132 | IIGINVWM | 5.443 ± 0.05
133 | CIGSRRGQSTSSVYRWSHYL | 0.192 ± 0.46
134 | GISCYLRVHTSANDESCSER | 0.426 ± 0.8
135 | LVQMISKILYNEE | inactive
136 | IWGGFYS | -1.29 ± 0.75
137 | LNHKDICFARNLVRVREGHN | 0.809 ± 0.38
138 | RIMPTLLKIPYLWYQSLSCD | -0.081 ± 0.22
139 | AVLSITMKGVVWKGLSNLCC | inactive
140 | ERYVCKGC | inactive
141 | IIFVVVASQKVHWFVRVDGD | -0.658 ± 1

Row | Substance | amyloid nucleation score
142 | NSAPRGQCRSVFGLMYSYSI | inactive
143 | MCVGNYVLRFLALPPSGCNM | -0.806 ± 0.36
144 | NGGPRAYLDIYDLSGVSDRR | 0.487 ± 0.18
145 | FLGTHVHANCSGYMVMIVYR | 7.773 ± 0.041
146 | LYLMSHTGFLSNTHIRLAPR | -0.291 ± 1.1
147 | NQLKGYTIYWVL | 4.45 ± 0.063
148 | VYTRMKITVGFKYLYN | 1.24 ± 0.45
149 | VYCVGNMSLGGLMDNCWYAG | 4.41 ± 0.062
150 | FDYAQRWSQP | 0.121 ± 0.49
151 | QLNFYNQTQCVLGEVTTLN | -0.476 ± 0.36
152 | YWNDSSRYGQVGVEYC | 0.49 ± 0.8
153 | RSLGVSAL | inactive
154 | VTGDMTLFAWNLMGA | 0.625 ± 0.43
155 | KRVGTYEVKI | -0.253 ± 0.55
156 | TVPGNEEV | 0.028 ± 0.53
157 | EFMNDVIILIYLSFKRTILN | -0.541 ± 1.1
158 | SDISNQLMFFGRWAPRVLVD | -0.35 ± 1.1
159 | FSRVESEIHSHWPW | 5.639 ± 0.041
160 | IYKILLLLAGRRGFDCLVFS | -0.926 ± 0.74
